Laboratory results: patent publication US10851152B2, “Polymerized peptide and gel having collagen-like structure” (WASEDA UNIVERSITY, priority 2015, dated 2020)
No end group written: not given here.

Tests used:
[1] = Thermal stability of hydrogel (sinking of stainless ball); type: physicochemical; conditions: hydrogel of 1% (w/v) peptide; 10 min per temperature
Description: After mounting the stainless ball on the hydrogel prepared, they were moved to a thermostatic device, and were left to stand for 10 min at various temperatures between 35° C. and 95° C. Whether gel collapse had occurred was determined by judging the sinking of the stainless ball.

[2] = Remaining thiol group (Ellman's reagent) in oxidative polymerization reaction; type: physicochemical; conditions: 10% DMSO, peptide 1% (w/v)
Description: Degassed water was used to prepare a peptide solution having a concentration of 1.11% (w/v), and the solution was then put into a PCR tube. After heating this solution at 80° C. for 5 min, it was then left to sand still at 4° C. overnight. By adding DMSO to this solution, there was prepared a peptide solution having a final concentration of 10% DMSO, peptide 1% (w/v). The PCR tube was then filled with a mineral oil in a way such that the mineral oil covered the surface of the solution. In every measurement, the mineral oil was eliminated from the peptide solution to prepare a peptide solution for oxidation monitoring. Ellman's reagent was prepared in a way such that 9 mg/ml of DTNB was present in 50 mM of a phosphate buffer solution (pH 8.4). 33 mM phosphate buffer solution (pH 8.4) and Ellman's reagent 1.5 mg/ml were left to stand for […], then a light absorbance was then measured after a solution with a final concentration of peptide 0.167 mg/ml. Recorded were changes in absorbance with time, with a moment when DMSO was added being a starting point (0 hour). Since the Ellman's reagent generates 5-mercapto-2-nitrobenzoate (λ max=412 nm, ε=1.55×10^4) depending on the amount of thiol groups (referred to as “SH groups” hereunder) in the peptide, measured was a absorbance at 412 nm. After the measurement, optical path length was compensated by measuring absorbance at 997 nm and 900 nm.

[3] = Hydrogel stability to reduction treatment (DTT) or water with pipetting; type: physicochemical; conditions: water added instead of reducing solution; pipetting about 90 times/min
Description: There, verification was made on whether gel caused a collapse by breaking the disulfide cross-linking by a reduction treatment. A reducing solution of 100 μl (100 mM DTT, 50 mM phosphate buffer solution (pH 8.4)) or water was added to the hydrogel (30 μl) prepared. […] Then, pipetting procedure was respectively performed at a frequency of about 90 times/min and a volume of 100 μl/each time, using a yellow tip (up to 200 μl).

[4] = Hydrogel formation judged by holding of a stainless ball; type: physicochemical; design: key to gel formation, Time (hour) 9 / gel formation, Time (hour) 12 / gel formation, Time (hour) 15 / gel formation, Time (hour) 24 / gel formation, Time (hour) 32 / gel formation, Time (hour) 74 / gel formation, Peptide concentration 0.1% (w/v) / gel formation, Peptide concentration 0.2% (w/v) / gel formation, Peptide concentration 0.3% (w/v) / gel formation, Peptide concentration 0.5% (w/v) / gel formation, Peptide concentration 0.7% (w/v) / gel formation, Peptide concentration 1.0% (w/v): ◯: Gelated; X: Failed to gelate
Description: Degassed water was used to prepare a peptide solution having a concentration of 1.11% (w/v) or 1.66% (w/v), and the solution was then put into a PCR tube. After heating this solution at 80° C. for 5 min using a polymerase chain reaction (PCR) machine (TaKaRa PCR Thermal Cycler, TAKARA BIO INC.), the solution was then left to stand at 4° C. overnight. By adding DMSO and water to this solution, there was prepared a peptide solution having a concentration of 10% DMSO, 0.1 to 1.5% (w/v). The PCR tube was then filled with a mineral oil in a way such that the mineral oil covered the liquid surface, followed by allowing the solution to stand at room temperature for a given period of time to achieve a gel. Then, gel formation was determined by looking at whether a stainless ball could be held by the gel.

[5] = CD spectrum measurement of triple-helical structure and its thermal stability; type: physicochemical; conditions: 225 nm; temperature gradient 18° C./h
Description: The structure of the peptide was confirmed by CD spectrum (circular dichroism spectrometer J-820, JASCO Corporation). A peptide powder was dissolved in a degassed 0.05% TFA/H2O to prepare a solution of 1 mg/ml. After heating at 80° C. for 5 min, the solution was left to stand at 4° C. overnight to cause refolding as a measurement sample. CD spectrum was measured under the conditions of: temperature 4° C., 37° C., 80° C.; cell length 0.05 cm; sensitivity standard (100 mdeg); measurement wavelength 250 to 190 nm; data collection interval 0.2 nm; scanning speed 50 nm/min; response 0.5 sec; band width 1 nm; cumulated number 4. A signal obtained (θobs) was expressed as a residue average molar ellipticity (θmrw). θmrw was calculated by the following formula.
A thermal stability of the triple-helical structure was observed by monitoring θmrw, 225 associated with a change in temperature. The measurement conditions were: 4 to 75° C. or 4 to 90° C.; cell length 0.05 cm; measurement wavelength 225 nm; data collection interval 0.5° C.; temperature gradient 18° C./h; sensitivity standard (100 mdeg); response 2 sec; band width 1 nm. It was determined that the triple-helical structure completely turned into a random coil structure in a region where the signal was linearly diminishing.

[6] = tested on: human dermal fibroblasts (HDF); experiment: Cell adhesion assay with multifunctional polymerized gel; type: cell-based; conditions: gels with 1% by weight CCC2-GFOGER (short) triple-chain peptide unless ligand free; 37° C., three hours
Description: CCC2-GPOGPR (short) (SEQ ID NO. 10), CC2-GPOGPR (short) (SEQ ID NO. 23) or C2-GPOGPR (short) (SEQ ID NO. 24) was respectively dissolved in a degassed ultrapure water, followed by heating it at 80° C. for 5 min, and then stranded at 4° C. overnight to form triple helix. These were mixed at various ratios, and DMSO was then added thereto in a way such that a final concentration became 10%, followed by adding them into a 96-well plate by 50 μL each. At that time, a triple-chain peptide containing CCC2-GFOGER (short) (SEQ ID NO. 11) of a weight ratio 1% was added to all the peptide mixture liquids, and those to which the triple-chain peptide was not added were recited as “Ligand-free.” This plate was then left to stand Mill in a container filled with 10% DMSO for four days or longer to turn the peptide solution into a gel. These gels were able to dilute DMSO by immersion in a cell culture medium overnight, and then used in the following experiments employing cells. Here, type I collagen was used as a positive control.
The human dermal fibroblasts (HDF) were stripped with 0.05% trypsin/EDTA, followed by centrifuged at 800 rpm in a 15 mL tube to collect the cells. […]

human fibroblast (HDF) = experiment: Adhesion of human fibroblasts to polymerized peptide with RGD motif linked via linker; type: cell-based; conditions: 37° C., about an hour
Description: CCC2-KGHRGF (SEQ ID NO. 18) was synthesized by a method similar to that of example 2. After forming triple helix with such CCC2-KGHRGF (SEQ ID NO: 18) at 1.11 mg/ml, DMSO was added to the concentration of 10%, and a mineral oil was then layered thereon, followed by oxidized and polymerized at room temperature for a week. Next, the polymerized peptide employing CCC2-KGHRGF (SEQ ID NO: 18) was diluted to 30 μg/ml, and a 96-well plate was then coated with such polymerized peptide overnight. Then, the solution was removed, followed by adding thereto 1 mg/ml BS (PEG)5 (by Pierce, catalog No. 21581) dissolved in a 5 mg/ml NaHCO3 aqueous solution, and then reacted at room temperature for about an hour to bind the linker. Next, there was added 10 mM ethanolamine (EA) or 100 μg/ml RGD pep (SEQ ID NO. 22) dissolved in a 5 mg/ml NaHCO3 aqueous solution, followed by allowing reaction to link CCC2-KGHRGF (SEQ ID NO: 18) to the linker at room temperature for about an hour.
5 mg/ml BSA was added to a gel linked with the above RGD motif, to perform blocking for about an hour. […] After air drying, microscopic observation was carried out, and there was evaluated a binding ability of HDF to the RGD motif linked to such polymerized peptide via a linker.

## CC(POG)6PRG(POG)5CC (CCPPGPPGPPGPPGPPGPPGPRGPPGPPGPPGPPGPPGCC; not fully specified; hydroxyproline; MOD_RES (4)..(4) 4-Hydroxyproline; MOD_RES (7)..(7) 4-Hydroxyproline; MOD_RES (10)..(10) 4-Hydroxyproline; MOD_RES (13)..(13) 4-Hydroxyproline; MOD_RES (16)..(16) 4-Hydroxyproline; MOD_RES (19)..(19) 4-Hydroxyproline; MOD_RES (25)..(25) 4-Hydroxyproline; MOD_RES (28)..(28) 4-Hydroxyproline; MOD_RES (31)..(31) 4-Hydroxyproline; MOD_RES (34)..(34) 4-Hydroxyproline; MOD_RES (37)..(37) 4-Hydroxyprolin) [CC2]
[1]
  temperature at which the stainless ball completely sank: 95 °C
[2]
  time in which peptide turned into a gel: 74 h
[3]
  gel collapse on adding water: gel collapse was observed
[4]; 1% (w/v) peptide, 10% DMSO, room temperature, up to three days
  gel-forming capability: capable of turning into gels
[4]; 1% (w/v) peptide, 9 hour
  gel formation, Time (hour) 9: X
[4]; 1% (w/v) peptide, 12 hour
  gel formation, Time (hour) 12: X
[4]; 1% (w/v) peptide, 15 hour
  gel formation, Time (hour) 15: X
[4]; 1% (w/v) peptide, 24 hour
  gel formation, Time (hour) 24: X
[4]; 1% (w/v) peptide, 32 hour
  gel formation, Time (hour) 32: ◯
[4]; 1% (w/v) peptide, 74 hour
  gel formation, Time (hour) 74: ◯
[4]; oxidizing conditions: room temperature, three days, 0.3% (w/v)
  gel formation, Peptide concentration 0.3% (w/v): X
[4]; oxidizing conditions: room temperature, three days, 0.5% (w/v)
  gel formation, Peptide concentration 0.5% (w/v): X
[4]; oxidizing conditions: room temperature, three days, 0.7% (w/v)
  gel formation, Peptide concentration 0.7% (w/v): X
[4]; oxidizing conditions: room temperature, three days, 1.0% (w/v)
  gel formation, Peptide concentration 1.0% (w/v): ◯
[5]
  thermal denaturation (change in θ225 as temperature changed): about 75 °C

## CCC(POG)4FOGERG(POG)4CCC [CCC2-GFOGER (short)]
[6]
  adhesion and aggregation of human dermal fibroblasts on gel: each human dermal fibroblast elongated and adhered respectively

## GRGDS-NH2 [soluble RGD, soluble peptide having the RGD motif, as a control]
Human fibroblast (HDF)
  adhesion of HDF: binding ability of HDF was not exhibited
